Experimental data: patent US9175053

Target: ubiquitylated alpha-synuclein(1-17) model peptide 8 (desulfurized ligation product of synthetic Ub-SR 5 and peptide 7), P37840

B1: recombinant human ubiquitin C-terminal hydrolase L3 (protein)
chain: MEGQRWLPLEANPEVTNQFLKQLGLHPNWQFVDVYGMDPELLSMVPRPVCAVLLLFPITEKYEVFRTEEEEKIKSQGQDVTSSVYFMKQTISNACGTIGLIHAIANNKDKMHFESGSTLKKFLEESVSMSPEERARYLENYDAIRVTHETSAHEGQTEAPSIDEKVDLHFIALVHVDGHLYELDGRKPFPINHGETSDETLLEDAIEVCKKFMERDPDELRFNAIALSAA
For B1, the “enzymatic cleavage of isopeptide (hydrolysis followed by C-4 analytical RP-HPLC, 12 hours at 37 C)” value was “a complete hydrolysis was achieved”.
